The record followed here is patent US6750057 (UNIVERSITY OF FLORIDA, dated 2004).

The target of this experiment is Native MBP (UniProt P0AEX9 27-392 = MBP). Briefly: in vitro pull-down on amylose resin, SDS-PAGE and autoradiography. Here is the method:
The ^35S-labeled XA21 kinase was then incubated with resin-bound MBP or MBP fusion proteins (1 ug) in the binding buffer [20 mM Hepes (pH 7.4), 1 mM EDTA, 5 mM MgCl_2, 1 mM DTT, 0.1% Triton X-100, 1 mg/ml BSA, 1× complete protease inhibitors (Roche Diagnostics)] for 120 min at 4° C. with gentle shaking. After washing with the washing buffer [20 mM Hepes (pH 7.4), 1 mM EDTA, 5 mM MgCl_2, 1 mM DTT, 0.1% Triton X-100] five times, the bound proteins were eluted with the washing buffer supplemented with 10 mM maltose and resolved by 8% SDS-PAGE according to Laemmli. Laemmli, Nature 227, 680 (1970). The gel was stained with Coomassie brilliant blue R-250, dried, and exposed to X-ray film.

B1: 35S-labeled XA21 kinase (enzyme)
chain: HKRTKKGAPSRTSMKGHPLVSYSQLVKATDGFAPTNLLGSGSFGSVYKGKLNIQDHVAVKVLKLENPKALKSFTAECEALRNMRHRNLVKIVTICSSIDNRGNDFKAIVYDFMPNGSLEDWIHPETNDQADQRHLNLHRRVTILLDVACALDYLHRHGPEPVVHCDIKSSNVLLDSDMVAHVGDFGLARILVDGTSLIQQSTSSMGFIGTIGYAAPEYGVGLIASTHGDIYSYGILVLEIVTGKRPTDSTFRPDLGLRQYVELGLHGRVTDVVDTKLILDSENWLNSTNNSPCRRITECIVWLLRLGLSCSQELPSSRTPTGDIIDELNAIKQNLSGLFPVCEGGSLEF
modifications: 35S-methionine labelled by in vitro transcription/translation. The label does not change the letters.
notes: Made with the TnT kit from a pET-28a construct; also called XA21 protein labeled with 35S; not shown: Vector-encoded N-terminal leader of pET-28a (His/T7 tag and the few residues from the BamHI/SalI primer sites)
As to B1, the binding result is “no binding (tested: 1 ug resin-bound protein)”.
